Measurements published in US20240190966A1.
Numbering of substitutions follows the chain as printed. Values joined by “and” are separate entries in the source; they are usually repeats but may differ in a detail not shown here. Equal values may be shown once. Read-outs that look alike come from different tables or passages of the source. Values belong to the binder of their own block, whether it stands above or below them.

Key:
[1] = molecular target: T1, 27mer cyno CD3 polypeptide conjugated to biotin (cynomolgus monkey); assay: BIAcore T200 SPR; biotinylated 27mer CD3 peptide on SA chip; TDB flowed at 37 C
T1 sequence (peptide, biotin conjugated (site not stated)): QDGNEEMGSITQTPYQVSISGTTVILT

[2] = molecular target: T1, 27mer cyno CD3 polypeptide conjugated to biotin (cynomolgus monkey); assay: as above; remark: listed apart in the source
[3] = molecular target: cynomolgus monkey LY6G6D-Fc (cynomolgus monkey); assay: BIAcore SPR; LY6G6D-Fc immobilized; TDB flowed at 37 C
[4] = molecular target: cynomolgus monkey LY6G6D-Fc (cynomolgus monkey); assay: BIAcore SPR; two-cell TDB with 38E4.v1 arm
[5] = molecular target: cynomolgus monkey LY6G6D-Fc (cynomolgus monkey); assay: BIAcore SPR; LY6G6D-Fc immobilized; TDB flowed at 37 C; remark: listed apart in the source

Kd [1]: 15.4 nM and 16.5 nM
koff [1]: 0.0399 s⁻¹ and 0.0437 s⁻¹
kon [1]: 2.6e+06 M⁻¹ s⁻¹ and 2.65e+06 M⁻¹ s⁻¹
Kd [2]: 15.9 nM
B1: LY6G6D TDB assembled using a one-cell system, anti-LY6G6D 20A12.QNTv12 arm (one-cell) and anti-CD3 38E4v1 (WT) arm (bispecific antibody, V domains shown)
VH 1: EVQLLESGGGLVQPGGSLRLSCAASGFDFVNNAMIWVREAPGKGLEWVSALSFADNTAYYATWASGRFTISRDSSKTTVYLQMNSLRAEDTAVYYCMRGDLWGPGTLVTVSS
VL 1: DIQMTQSPSTLSASVGDRVTITCQASESITRYLNWYQKKPGKAPKLLIYDASKLPSGVPSRFSGSGSGTEFTLTISSLQPDDFATYYCQSTSFRGRSYQNTFGGGTKVEIK
VH 2: EVQLVQSGAEVKKPGASVKVSCKASGFTFTSYYIHWVRKAPGQGLEWIGWIYPENDNTKYNEKFKDRVTITADTSTSTAYLELSSLRSEDTAVYYCARDGYSRYYFDYWGQGTLVTVSS
VL 2: DIVMTQSPDSLAVSLGERATINCKSSQSLLNSRTRKNYLAWYQEKPGQSPKLLIYWTSTRKSGVPDRFSGSGSGTDFTLTISSLQAEDVAVYYCKQSFILRTFGQGTKVEIK

Kd [3]: 2.62 nM
koff [3]: 0.000574 s⁻¹
kon [3]: 219000 M⁻¹ s⁻¹
Kd [1]: 14 nM and 14.7 nM
koff [1]: 0.0433 s⁻¹ and 0.0426 s⁻¹
kon [1]: 3.09e+06 M⁻¹ s⁻¹ and 2.89e+06 M⁻¹ s⁻¹
Kd [2]: 14.4 nM
B2: LY6G6D TDB assembled using a one-cell system, anti-LY6G6D 20A12.QNTv12 arm (one-cell) and anti-CD3 38E4.v1 MD4 arm (bispecific antibody, V domains shown)
VH 1: B1 VH 1
VL 1: B1 VL 1
VH 2: B1 VH 2
VL 2: B1 VL 2 with S49P, T57A

Kd [3]: 3.63 nM
koff [3]: 0.000512 s⁻¹
kon [3]: 141000 M⁻¹ s⁻¹
Kd [1]: 26.6 nM and 25.6 nM
koff [1]: 0.0383 s⁻¹ and 0.0376 s⁻¹
kon [1]: 1.44e+06 M⁻¹ s⁻¹ and 1.47e+06 M⁻¹ s⁻¹
Kd [2]: 26.1 nM
B3: LY6G6D TDB assembled using a one-cell system, anti-LY6G6D 20A12.QNTv12 arm (one-cell) and anti-CD3 38E4.v1 MD1 arm (bispecific antibody, V domains shown)
VH 1: B1 VH 1
VL 1: B1 VL 1
VH 2: B1 VH 2
VL 2: B1 VL 2 with S49P, T57A, K61E, K95T

Kd [3]: 1.92 nM
koff [3]: 0.000444 s⁻¹
kon [3]: 231000 M⁻¹ s⁻¹
Kd [1]: 13 nM and 16.5 nM
koff [1]: 0.0337 s⁻¹ and 0.0364 s⁻¹
kon [1]: 2.6e+06 M⁻¹ s⁻¹ and 2.21e+06 M⁻¹ s⁻¹
Kd [4]: 2.29 nM
Kd [2]: 14.8 nM
Kd [5]: 2.29 nM
koff [5]: 0.00038 s⁻¹
kon [5]: 166000 M⁻¹ s⁻¹
B4: LY6G6D TDB comprising the anti-LY6G6D 20A12.QNTv12 arm (two-cell) and the anti-CD3 38E4.v1 arm (bispecific antibody, V domains shown)
VH 1: B1 VH 1 with E39Q
VL 1: B1 VL 1 with K38Q
VH 2: B1 VH 2 with K39Q
VL 2: B1 VL 2 with E44Q
